Data reported in patent US20190359683A1 (Stanford University, published 2019).
Positions count from the first letter of the chain named.

Tests used:
[1] = biological target: T1, recombinantly produced ciliary neurotrophic factor (CNTF) (UniProt P26441 1-200, limits assumed); test: ELISA
T1 sequence (looked up): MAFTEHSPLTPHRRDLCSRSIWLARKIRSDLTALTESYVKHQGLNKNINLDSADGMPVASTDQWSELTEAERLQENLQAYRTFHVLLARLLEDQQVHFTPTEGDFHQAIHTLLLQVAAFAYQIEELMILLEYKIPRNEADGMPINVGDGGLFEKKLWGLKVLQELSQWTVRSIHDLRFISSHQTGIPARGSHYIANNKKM

mouse CLCF1 (mCLCF1) = biological target: T2, mouse CLCF1 (mCLCF1) (mouse, UniProt Q9QZM3 28-225, limits assumed); test: ELISA
T2 construct: also called serum CLCF1 (mouse)
T2 sequence (looked up): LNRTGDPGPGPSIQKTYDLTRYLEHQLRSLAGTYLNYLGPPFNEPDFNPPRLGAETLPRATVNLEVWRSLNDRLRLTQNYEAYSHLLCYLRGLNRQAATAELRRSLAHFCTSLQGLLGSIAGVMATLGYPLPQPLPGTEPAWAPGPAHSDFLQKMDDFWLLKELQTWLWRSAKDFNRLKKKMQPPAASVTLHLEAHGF

[2] = biological target: T3, recombinant human cardiotrophin-like cytokine factor 1 (CLCF1) (human, UniProt Q9UBD9 28-225, limits assumed); test: ELISA: incubated with CLCF1 4 h at room temperature, complex captured on anti-mouse Fc plate, detected with rabbit anti-CLCF1
T3 construct: also called hCLCF1
T3 sequence (looked up): T2 sequence (looked up) with N63D, R73K, T126A, A141T, A143T, S188A, E194G
Text: Then the complexes were captured using microtiter plates coated with anti-his antibody or anti-mouse Fc antibody. […] The same approach was used to characterize binding interaction with the beta receptors.

binding result [1]: no binding | binding result (mouse CLCF1 (mCLCF1)): binds | binding result [2]: binds
B1: eCNTFR-Fc (soluble engineered CNTFR fused to mouse IgG2a Fc) (Fc fusion)
chain: QRHSPQEAPHVQYERLGSDVTLPCGTANWDAAVTWRVNGTDLAPDLLNGSQLVLHGLELGHSGLYACFHRDSWHLRHQVLLHVGLPPQEPVLSCRSNTYPKGFYCSWHLPTPTYIPNTFNVTVLHGSKIMVCEKDPALKNRCHIRYMHLFSPIKHNVSISVSNALGHNATAITFDEFTIVKPDPPENVVARPVPSNPRRLEVTWQTPSTWPDPEFFPLKFFLRYRPLILDQWQHVELSDGTAHTIAAAYAGKEYIIQVAAKDNEFGTWSDWSVAAHATPWTEEPRHLTTEAQAAETTTSTTSSLAPPPTTKICDPGELGSRRLEPRGPTIKPCPPCKCPAPNLLGGPSVFIFPPKIKDVLMISLSPIVTCVVVDVSEDDPDVQISWFVNNVEVHTAQTQTHREDYNSTLRVVSALPIQHQDWMSGKEFKCKVNNKDLPAPIERTISKPKGSVRAPQVYVLPPPEEEMTKKQVTLTCMVTDFMPEDIYVEWTNNGKTELNYKNTEPVLDSDGSYFMYSKLRVEKKNWVERNSYSCSVVHEGLHNHHTTKSFSRTPGK
notes: Made in HEK293; also called Fc fusion eCNTFR; engineered CLCF1 trap
